Substitutions are numbered along the chain they refer to. Names and notes keep the numbering of the source.
B1: D444A: GFP-tagged PAK4 D444A mutant; catalytic domain (Fig 4G) or full-length (Fig 4H) (protein, UniProt O96013 1-591, looked up, variant D444A)
Serine/threonine-protein …: MFGKRKKRVEISAPSNFEHRVHTGFDQHEQKFTGLPRQWQSLIEESARRPKPLVDPACITSIQPGAPKTIVRGSKGAKDGALTLLLDEFENMSVTRSNSLRRDSPPPPARARQENGMPEEPATTARGGPGKAGSRGRFAGHSEAGGGSGDRRRAGPEKRPKSSREGSGGPQESSRDKRPLSGPDVGTPQPAGLASGAKLAAGRPFNTYPRADTDHPSRGAQGEPHDVAPNGPSAGGLAIPQSSSSSSRPPTRARGAPSPGVLGPHASEPQLAPPACTPAAPAVPGPPGPRSPQREPQRVSHEQFRAALQLVVDPGDPRSYLDNFIKIGEGSTGIVCIATVRSSGKLVAVKKMDLRKQQRRELLFNEVVIMRDYQHENVVEMYNSYLVGDELWVVMEFLEGGALTDIVTHTRMNEEQIAAVCLAVLQALSVLHAQGVIHRDIKSASILLTHDGRVKLSDFGFCAQVSKEVPRRKSLVGTPYWMAPELISRLPYGPEVDIWSLGIMVIEMVDGEPPYFNEPPLKAMKMIRDNLPPRLKNLHKVSPSLKGFLDRLLVRDPAQRATAAELLKHPFLAKAGPPASIVPLMRQNRTR
modifications: GFP tag; catalytic domain or full-length
B2: E512R: GFP-tagged PAK4 E512R mutant; catalytic domain (Fig 4G) or full-length (Fig 4H) (protein, UniProt O96013 1-591, looked up, variant E512R)
Serine/threonine-protein …: B1 Serine/threonine-protein … with A444D, E512R
modifications: GFP tag
B3: E512A: GFP-tagged PAK4 E512A mutant; catalytic domain (Fig 4G) or full-length (Fig 4H) (protein, UniProt O96013 1-591, looked up, variant E512A)
Serine/threonine-protein …: B1 Serine/threonine-protein … with A444D, E512A
modifications: GFP tag; catalytic domain or full-length
B4: Q358A: GFP-tagged PAK4 Q358A mutant; catalytic domain (Fig 4G) or full-length (Fig 4H) (protein, UniProt O96013 1-591, looked up, variant Q358A)
Serine/threonine-protein …: B1 Serine/threonine-protein … with Q358A, A444D
modifications: GFP tag
B5: D444R: GFP-tagged PAK4 D444R mutant; catalytic domain (Fig 4G) or full-length (Fig 4H) (protein, UniProt O96013 1-591, looked up, variant D444R)
Serine/threonine-protein …: B1 Serine/threonine-protein … with A444R
modifications: GFP tag; catalytic domain or full-length
B6: M482K: GFP-tagged PAK4 M482K mutant; catalytic domain (Fig 4G) or full-length (Fig 4H) (protein, UniProt O96013 1-591, looked up, variant M482K)
Serine/threonine-protein …: B1 Serine/threonine-protein … with A444D, M482K
modifications: GFP tag

Each molecule was assayed on integrin β5 tail (assay: Pull-down of wild-type and mutated GFP-PAK4 catalytic domain by wild-type integrin β5 tail). Conditions: Figure 4G source data; PAK4 catalytic domain; replicate 1.
Type: binding
Method: (§1) Pull down assays were performed as previously described[45],[60]. Briefly, constructs encoding an N-terminal His-tag followed by a helical region, a 4-glycine spacer, and an integrin cytoplasmic tail sequence were produced in BL21 (DE3) bacteria. Following bacterial cell lysis, recombinant protein was bound to Ni-NTA beads, eluted with imidazole, dialyzed and further purified by reverse-phase high-performance liquid chromatography (HPLC). Purified protein was lyophilized for storage and was used to coat fresh Ni-NTA beads to generate an affinity matrix for pull-down assays.
(§2) For pulldowns from cell lysates, human PAK4 constructs were generated in pEGFP (Takara Bio Inc.) by PCR amplification from a pLX304 PAK4 isoform 1 (Uniprot O96013-1) construct kindly provided by Michael Calderwood (Dana-Farber Cancer Institute). Mutations and deletions were introduced by QuikChange mutagenesis or PCR amplification. Chinese hamster ovary (CHO) cells were seeded on 10 cm tissue culture dishes and transiently transfected with GFP-tagged constructs using polyethylenimine (Polysciences). After 24 h, cells were harvested and lysed in buffer X (1 mM NaVO4, 50 mM NaF, 40 mM sodium pyrophosphate, 50 mM NaCl, 150 mM sucrose, 10 mM Pipes, pH 6.8) containing 0.5% Triton X-100, 0.2% deoxycholic acid, and complete EDTA-free protease inhibitor mixture (Roche, Indianapolis, IN, USA) for 15 min at 4 °C. After clarification by centrifugation, lysate was diluted in buffer X-T (buffer X with 0.05% Triton X-100) and incubated with His-tagged integrin tails coupled to Ni-NTA beads for 4 h with rocking at 4 °C. For experiments using purified PAK4cat, protein was incubated with His-tagged integrin tails coupled to Ni-NTA beads in buffer X-T for 2 h with rocking at 4 °C. Beads were then washed three times with buffer X-T, and bound proteins were fractionated by reducing SDS-PAGE and analyzed by immunoblotting with anti-GFP antibodies (600-101-215, Rockland). Immunoblots were imaged on an Odyssey IR imaging system (Li-Cor; Lincoln, NE, USA) and analyzed using Image Studio Lite (Li-Cor; Lincoln, NE, USA). For the quantification of binding from immunoblots, the fluorescence intensity of the band corresponding to bound material was quantified as a fraction of the fluorescence of the input material band for each condition. Loading of integrin tails was assessed by Coomassie Blue staining. Data were analyzed using GraphPad Prism.

Binding to wild-type integrin β5 tail, normalized to cat-WT | Molecule
0.04069 | B1
0.1343 | B2
0.4077 | B3
0.8373 | B4
0.1667 | B5
0.517 | B6

Same assay, conditions: Figure 4G; replicate 2

Binding to wild-type integrin β5 tail, normalized to cat-WT | Molecule
0.001166 | B1
0.09959 | B2
0.4295 | B3
0.4614 | B4
0.1098 | B5
0.2755 | B6

Same assay, conditions: Figure 4G; replicate 3

Binding to wild-type integrin β5 tail, normalized to cat-WT | Molecule
0.2433 | B1
0.2543 | B2
0.5407 | B3
0.71 | B4
2.475e-5 | B5
0.5038 | B6

Same assay, conditions: Figure 4G; replicate 4

Binding to wild-type integrin β5 tail, normalized to cat-WT | Molecule
0.09577 | B1
0.09217 | B2
0.2568 | B3
1.075 | B4
0.334 | B5
0.2427 | B6

Same assay, conditions: Figure 4G; replicate 5

Binding to wild-type integrin β5 tail, normalized to cat-WT | Molecule
3.582e-6 | B1
0.08446 | B2
0.7435 | B3
0.4677 | B4
0.004908 | B5
0.2915 | B6

Same assay, conditions: Figure 4G; replicate 6

Binding to wild-type integrin β5 tail, normalized to cat-WT | Molecule
0.09749 | B1
0.3379 | B2
0.2789 | B3
1.0032 | B4
0.1746 | B5
0.007133 | B6

Same assay, conditions: Figure 4G; replicate 7

Binding to wild-type integrin β5 tail, normalized to cat-WT | Molecule
0.0832 | B1
0.1085 | B3
1.283 | B4
0.115 | B5

Same assay, conditions: Figure 4G; replicate 8

Binding to wild-type integrin β5 tail, normalized to cat-WT | Molecule
1.183 | B4

Same assay, conditions: Figure 4G; replicate 9

Binding to wild-type integrin β5 tail, normalized to cat-WT | Molecule
0.828 | B4

Same assay, conditions: catalytic domain (Fig. 4g) and full-length PAK4 (Fig. 4h)

Molecule | Effect of PAK4 mutation on pull-down by integrin β5
B1 | strong inhibition
B2 | strong inhibition
B4 | no effect on binding
B6 | moderate effect

The molecules below were run on integrin β5 tail (assay: Pull-down of wild-type and mutated full-length GFP-PAK4 by wild-type integrin β5 tail). Conditions: Figure 4H source data; full-length PAK4; experiment row r4.
Type: binding
Method: as §1, §2

Binding to wild-type integrin β5 tail, normalized to FL-WT | Molecule
0.235 | B1
0.221 | B4
0.011 | B5
0.259 | B6

Same assay, conditions: Figure 4H; experiment row r5

Binding to wild-type integrin β5 tail, normalized to FL-WT | Molecule
0.008 | B1
0.472 | B2
0.029 | B3
0.9415 | B4
1.377 | B6

Same assay, conditions: Figure 4H; experiment row r6

Binding to wild-type integrin β5 tail, normalized to FL-WT | Molecule
0.89 | B2
0.62 | B3
0.432 | B6

Same assay, conditions: Figure 4H; experiment row r7

Binding to wild-type integrin β5 tail, normalized to FL-WT | Molecule
0.486 | B2
0.561 | B3
0.517 | B5
0.512 | B6

Same assay, conditions: Figure 4H; experiment row r8

Binding to wild-type integrin β5 tail, normalized to FL-WT | Molecule
0.106 | B2
0.262 | B3
0.58 | B4
0.381 | B6

Same assay, conditions: Figure 4H; experiment row r9

Binding to wild-type integrin β5 tail, normalized to FL-WT | Molecule
0.64 | B2
0.4 | B3

Same assay, conditions: Figure 4H; experiment row r10

Binding to wild-type integrin β5 tail, normalized to FL-WT | Molecule
3.01 | B4
1.044 | B6

Same assay, conditions: Figure 4H; experiment row r11

Binding to wild-type integrin β5 tail, normalized to FL-WT | Molecule
0.278 | B6

Same assay, conditions: Figure 4H; experiment row r13

Binding to wild-type integrin β5 tail, normalized to FL-WT | Molecule
0.253 | B5

Same assay, conditions: Figure 4H; experiment row r14

Binding to wild-type integrin β5 tail, normalized to FL-WT | Molecule
0.233 | B1
0.329 | B5

Same assay, conditions: Figure 4H; experiment row r15

Binding to wild-type integrin β5 tail, normalized to FL-WT | Molecule
0.015 | B1
0.208 | B5

Same assay, conditions: Figure 4H; experiment row r17

Binding to wild-type integrin β5 tail, normalized to FL-WT | Molecule
0.03 | B3
1.265 | B4
0.149 | B6

Same assay, conditions: Figure 4H; experiment row r18

Binding to wild-type integrin β5 tail, normalized to FL-WT | Molecule
0.66 | B4

Same assay, conditions: Figure 4H; experiment row r19

Binding to wild-type integrin β5 tail, normalized to FL-WT | Molecule
0.1 | B3
1.25 | B4
0.8 | B6

Source: publication PMC9669019, “Molecular basis for integrin adhesion receptor binding to p21-activated kinase 4 (PAK4)” (Communications Biology, 2022)
